From patent US20080241130A1 (published 2008)

Columns and labels:
human IL-17R.Fc = biological target: T1, human IL-17R.Fc (human); assay: indirect sandwich ELISA; receptor.Fc captured on goat anti-human IgG-Fc, biotinylated cytokine titrated
T1 construct: also called hIL-17R.Fc; IL-17RA.Fc
Protocol: (§1) Binding of human IL-17F, hIL-17A or hIL-17F/IL-17A to human IL-17R.Fc (hIL-17R.Fc) and IL-17RC.Fc (hIL-17RC.Fc) was determined by indirect sandwich ELISA. ELISA plates (Costar, Cambridge Mass.) were coated overnight with 10 μg/ml goat anti-human IgG-Fc (Bethyl Laboratories, Montgomery, Tex.). Human IL-17R.Fc or hIL17-RC.Fc was then loaded at 6 ng/ml and 30 ng/ml, respectively, for 3 hours, followed by serial dilutions of biotinylated IL-17A, IL-17F or IL-17F/IL-17A for 2 hours. The plate was developed with Poly-HRP Streptavidin (Pierce Biotechnology, Rockford, Ill.) and TMB Substrate (KPL Labs, Gaithersburg, Md.).
(§2) The binding of hIL-17F, hIL-17A or hIL-17F/IL-17A to hIL-17R.Fc and/or hIL-17RC.Fc was evaluated by indirect sandwich ELISA. All three cytokines bound to hIL-17RC.Fc with approximately the same EC₅₀ of 18-25 ng/ml (FIG. 1B). However, the EC₅₀ for the three cytokines were different for binding to hIL-17R.Fc. The tightest binding occurred between hIL-17A and hIL-17R.Fc with an EC₅₀ of 25 ng/ml. Human IL-17F bound weakly to hIL-17R.Fc with an EC₅₀ greater than 2000 ng/ml.

human IL-17RC.Fc = biological target: T2, human IL-17RC.Fc (human); assay: indirect sandwich ELISA: IL-17RC.Fc captured on goat anti-human IgG-Fc, biotinylated cytokine titrated, Poly-HRP streptavidin
T2 construct: also called hIL-17RC.Fc
T2 sequence (chain, as listed by the source limits assumed): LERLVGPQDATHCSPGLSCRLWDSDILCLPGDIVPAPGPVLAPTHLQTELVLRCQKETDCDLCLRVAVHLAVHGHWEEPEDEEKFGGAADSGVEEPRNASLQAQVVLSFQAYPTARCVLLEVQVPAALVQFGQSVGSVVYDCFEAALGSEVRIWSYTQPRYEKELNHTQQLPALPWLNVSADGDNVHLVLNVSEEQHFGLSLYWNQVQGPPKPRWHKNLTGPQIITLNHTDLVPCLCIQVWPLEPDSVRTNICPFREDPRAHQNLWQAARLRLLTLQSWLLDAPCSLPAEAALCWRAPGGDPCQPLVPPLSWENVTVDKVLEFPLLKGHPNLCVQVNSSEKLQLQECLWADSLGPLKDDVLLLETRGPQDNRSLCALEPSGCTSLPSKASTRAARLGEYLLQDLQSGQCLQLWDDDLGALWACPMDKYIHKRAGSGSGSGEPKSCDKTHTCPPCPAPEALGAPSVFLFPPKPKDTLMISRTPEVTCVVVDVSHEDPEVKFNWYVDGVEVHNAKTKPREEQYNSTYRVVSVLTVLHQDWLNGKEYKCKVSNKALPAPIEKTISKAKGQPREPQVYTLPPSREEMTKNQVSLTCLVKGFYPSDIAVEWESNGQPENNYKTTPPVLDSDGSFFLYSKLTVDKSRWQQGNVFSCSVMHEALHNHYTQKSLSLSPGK
Protocol: as §1, §2

T1 sequence (chain, as listed by the source limits assumed): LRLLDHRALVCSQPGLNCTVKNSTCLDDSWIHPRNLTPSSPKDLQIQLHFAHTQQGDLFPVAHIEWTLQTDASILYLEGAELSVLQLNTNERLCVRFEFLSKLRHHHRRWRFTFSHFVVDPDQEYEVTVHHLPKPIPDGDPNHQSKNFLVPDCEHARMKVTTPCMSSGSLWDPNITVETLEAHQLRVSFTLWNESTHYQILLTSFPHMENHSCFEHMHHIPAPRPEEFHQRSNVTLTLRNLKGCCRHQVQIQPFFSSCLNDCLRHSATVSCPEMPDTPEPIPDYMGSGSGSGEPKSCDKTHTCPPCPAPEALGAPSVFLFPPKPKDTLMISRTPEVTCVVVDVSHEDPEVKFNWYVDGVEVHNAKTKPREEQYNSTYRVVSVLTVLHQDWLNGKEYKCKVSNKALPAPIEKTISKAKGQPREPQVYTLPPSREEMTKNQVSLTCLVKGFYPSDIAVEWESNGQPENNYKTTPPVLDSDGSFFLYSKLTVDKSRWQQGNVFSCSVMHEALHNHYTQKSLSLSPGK

EC50 (human IL-17R.Fc): > 2 µg/mL | EC50 (read off the curve) (human IL-17RC.Fc): ~0.02 µg/mL
B1: human IL-17F (ligand)
chain: RKIPKVGHTFFQKPESCPPVPGGSMKLDIGIINENQRVSMSRNIESRSTSPWNYTVTWDPNRYPSEVVQAQCRNLGCINAQGKEDISMNSVPIQQETLVVRRKHQGCSVSFQLEKVLVTVGCTCVTPVIHHVQ
modifications: biotinylated in the ELISA (FluoReporter Mini-biotin-XX kit); sites not stated
notes: Homodimer; also called hIL-17F
